# Reference: PMC9019020, “Low complexity RGG-motif sequence is required for Processing body (P-body) disassembly” (Nature Communications, 2022)
# T1: His-Edc3-mCherry (S. cerevisiae, UniProt P39998 1-551)
# T1 construct: Edc3, P-body protein of S. cerevisiae with Lsm, FDF and YjeF-N domains; full length; also called full-length Edc3; purified Edc3; source: E. coli BL21, purified (Ni-NTA agarose, batch; RNase A added during purification); not shown: His, N-terminal, kept; mCherry, C-terminal, kept
# T1 sequence (looked up): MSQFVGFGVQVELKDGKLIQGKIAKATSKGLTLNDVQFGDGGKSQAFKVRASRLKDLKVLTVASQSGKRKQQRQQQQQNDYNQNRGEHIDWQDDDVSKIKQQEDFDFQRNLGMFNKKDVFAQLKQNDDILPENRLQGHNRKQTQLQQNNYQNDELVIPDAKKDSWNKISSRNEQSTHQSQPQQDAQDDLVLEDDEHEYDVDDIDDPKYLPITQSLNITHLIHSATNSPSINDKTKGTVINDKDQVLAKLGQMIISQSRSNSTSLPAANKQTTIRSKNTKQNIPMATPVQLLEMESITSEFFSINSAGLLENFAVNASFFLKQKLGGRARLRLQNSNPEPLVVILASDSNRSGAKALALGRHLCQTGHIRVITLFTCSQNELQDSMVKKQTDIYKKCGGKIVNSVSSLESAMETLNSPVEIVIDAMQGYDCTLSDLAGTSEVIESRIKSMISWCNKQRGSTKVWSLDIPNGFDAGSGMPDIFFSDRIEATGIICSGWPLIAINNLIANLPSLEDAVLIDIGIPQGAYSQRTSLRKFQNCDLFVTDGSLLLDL
# B1: His-Sbp1-FLAG (natural protein, S. cerevisiae, UniProt P10080 1-294, looked up)
# chain: MSAEIEEATNAVNNLSINDSEQQPRAPTHKTVIDPEDTIFIGNVAHECTEDDLKQLFVEEFGDEVSVEIPIKEHTDGHIPASKHALVKFPTKIDFDNIKENYDTKVVKDREIHIKRARTPGQMQRGGFRGRGGFRGRGGFRGGFRGGYRGGFRGRGNFRGRGGARGGFNGQKREKIPLDQMERSKDTLYINNVPFKATKEEVAEFFGTDADSISLPMRKMRDQHTGRIFTSDSANRGMAFVTFSGENVDIEAKAEEFKGKVFGDRELTVDVAVIRPENDEEEIEQETGSEEKQE
# notes: Sbp1, RGG-motif containing translation repressor of S. cerevisiae; wild type; also called wild-type Sbp1; purified Sbp1; source: E. coli BL21, purified (Ni-NTA agarose, batch; RNase A added during purification); not shown: His, N-terminal, kept; FLAG, C-terminal, kept
# Molecular target: T1, His-Edc3-mCherry
# Experiment: pull-down; RFP magnetic agarose beads (Chromotek) capture Edc3-mCherry; 100 pmol of each purified protein; 4 °C, 2 h; 50 mM HEPES pH 7, 100 mM NaCl, 1 mM DTT, 2 mM MnCl2, 2 mM MgCl2, 1% Triton-X100, 10% glycerol, 0.25 mg/mL RNase A; western blot
# Details: both partners purified
binder,measurement,value
B1,binding result,binds
